Experimental data as given in PMC6522968.

Target: Glu387 (UniProt position 387, YMYVTENGIAD)
Assay: kinetics
Details: 65 °C; 50.0 mM sodium citrate (pH 3.0–5.6), sodium phosphate (pH 6.0–8.0) and KCl/borate (pH 8.0–10.0); enzyme-substrate complex with 4Np-Glc, as described by the authors; folded, active enzyme

beta-glycosidase (Ssβ-gly) H150A mutant (A150) (Sulfolobus solfataricus (Saccharolobus solfataricus); H150A)
pKa: 5.29 ± 0.18

beta-glycosidase (Ssβ-gly) (Sulfolobus solfataricus (Saccharolobus solfataricus))
pKa: 3.41 ± 0.13
